Assay [1] addresses Arp2/3 complex (untagged, yeast) (yeast (RedStar yeast cakes)) (UniProt P32381). Briefly: SEC; Superdex 200 Increase 10/300 GL, 4 °C; 0.7 µM Arp2/3 complex and 7 µM Abp1 incubated >1 h on ice; 10 mM HEPES pH 7.0, 50 mM KCl, 1 mM EGTA, 2 mM MgCl2, 0.5 mM DTT, 0.1 mM ATP; bands of the peak fraction quantified on stain-free gels against standards.
For assay [2], the target named is SNAP-tagged S. cerevisiae Arp2/3 complex (dye-labelled) (S. cerevisiae) (UniProt P32381). Briefly: single-molecule TIRF colocalisation; 649-biotin-SNAP-Arp2/3 complex anchored by streptavidin; 20 nM Abp1-SNAP-549 with 200 nM unlabeled Abp1 (220 nM total); 0.25 s intervals for 120 s; double exponential fit.
Assay [3] shares this target. Put plainly: single-molecule TIRF colocalisation; 649-biotin-SNAP-Arp2/3 complex anchored by streptavidin; 20 nM Abp1-SNAP-549 flowed in; no actin; 0.25 s intervals for 120 s.
For assay [4], the target named is Arp2/3 complex (untagged, yeast) (yeast (RedStar yeast cakes)) (UniProt P32381). Briefly: negative-stain single-particle electron microscopy; Abp1-SNAP and Arp2/3 complex at 1:1 molar ratio (100 nM each), 30 min at room temperature, uranyl formate stain; random conical tilt 3D reconstructions at 21 Å.
Assay [5] deals with Rabbit skeletal muscle actin (filaments) (rabbit) (UniProt P68135). Put plainly: single-molecule TIRF colocalisation; as a1 with 0.5 µM Abp1 present; double exponential fit.
For assay [6] the target is unchanged. Put plainly: single-molecule TIRF colocalisation; 10 nM JF646-SNAP-Arp2/3 on tethered, preformed unbranched OG-labeled actin filaments, no actin monomers, no Abp1; recorded at 0.15 s intervals; TIRF buffer pH 7.4; single exponential fit.
Assay [7] addresses Abp1-SNAP (S. cerevisiae Abp1 with C-terminal SNAP-tag, dye-labelled) (S. cerevisiae) (UniProt P15891). Briefly: single-molecule TIRF colocalisation; Abp1-SNAP-biotin-549 anchored by streptavidin; JF646-SNAP-Arp2/3 flowed in (10 nM in the results, 15 nM in the methods); no actin; 0.25 s intervals for 60 s.

As to “Abp1 (S. cerevisiae, untagged after GST cleavage) (from UniProt P15891 1-592) (natural protein)”, the stoichiometry N (Abp1 per Arp2/3 complex) in assay [1] is 2.

Consider “Abp1-SNAP (S. cerevisiae Abp1 with C-terminal SNAP-tag, dye-labelled) (from UniProt P15891 1-592) (natural protein)”, for which the lifetime of long-lived interactions at 220 nM total Abp1 in assay [2] was 36 s. In assay [3], this substance came in with an average lifetime of 0.36 s. For the same substance, the percent of particles in the Class 1 Abp1-bound reconstruction in assay [4] turned out to be 30%.

“SNAP-tagged S. cerevisiae Arp2/3 complex (dye-labelled) (from UniProt P32381 1-391; P47117 1-449; P38328 1-384)” showed a lifetime of the longer-lived binding events with 0.5 µM Abp1 in assay [5] of 2 s. In assay [6], this substance yielded an average lifetime on filament sides of 0.37 s. Also, the average dwell time in assay [7] was determined as 0.37 s.

Values taken from paper PMC6057921.
